B1: Sialidase, P29768 (parent)
chain: MTVEKSVVFKAEGEHFTDQKGNTIVGSGSGGTTKYFRIPAMCTTSKGTIVVFADARHNTASDQSFIDTAAARSTDGGKTWNKKIAIYNDRVNSKLSRVMDPTCIVANIQGRETILVMVGKWNNNDKTWGAYRDKAPDTDWDLVLYKSTDDGVTFSKVETNIHDIVTKNGTISAMLGGVGSGLQLNDGKLVFPVQMVRTKNITTVLNTSFIYSTDGITWSLPSGYCEGFGSENNIIEFNASLVNNIRNSGLRRSFETKDFGKTWTEFPPMDKKVDNRNHGVQGSTITIPSGNKLVAAHSSAQNKNNDYTRSDISLYAHNLYSGEVKLIDDFYPKVGNASGAGYSCLSYRKNVDKETLYVVYEANGSIEFQDLSRHLPVIKSYN

Variants of: B1
Settings: Salmonella typhimurium (strain LT2 / SGSC1412 / ATCC 700720), pH 7, CD, Potassium phosphate 10 mM, reversible: yes, structure 1DIL, whole UniProt chain shown; for ddG of mutation (higher = less stable) / denaturant midpoint (higher = more stable) / unfolding free energy: 25 °C, GdnHCl; for Tm / change of melting temperature, mutant - wild type (higher = more stable): Thermal

A69V
ddG of mutation (higher = less stable): -0.62 kcal/mol | denaturant midpoint (higher = more stable): 1.42 M | unfolding free energy: 4.86 kcal/mol | Tm: 60 °C | change of melting temperature, mutant - wild type (higher = more stable): 3 °C

A53L
ddG of mutation (higher = less stable): -0.81 kcal/mol | denaturant midpoint (higher = more stable): 1.64 M | unfolding free energy: 5.05 kcal/mol | Tm: 62 °C | change of melting temperature, mutant - wild type (higher = more stable): 5 °C

Source: FireProtDB (doi:10.1093/protein/14.11.891)
